Reference: publication PMC7055300, “Theileria parasites subvert E2F signaling to stimulate leukocyte proliferation” (Scientific Reports, 2020)

Target: human Retinoblastoma-1 (RB) pocket domain (human) (UniProt P06400)
Assay: SPR

Sequence of human Retinoblastoma-1 (RB) pocket domain (human) (P06400 373-771): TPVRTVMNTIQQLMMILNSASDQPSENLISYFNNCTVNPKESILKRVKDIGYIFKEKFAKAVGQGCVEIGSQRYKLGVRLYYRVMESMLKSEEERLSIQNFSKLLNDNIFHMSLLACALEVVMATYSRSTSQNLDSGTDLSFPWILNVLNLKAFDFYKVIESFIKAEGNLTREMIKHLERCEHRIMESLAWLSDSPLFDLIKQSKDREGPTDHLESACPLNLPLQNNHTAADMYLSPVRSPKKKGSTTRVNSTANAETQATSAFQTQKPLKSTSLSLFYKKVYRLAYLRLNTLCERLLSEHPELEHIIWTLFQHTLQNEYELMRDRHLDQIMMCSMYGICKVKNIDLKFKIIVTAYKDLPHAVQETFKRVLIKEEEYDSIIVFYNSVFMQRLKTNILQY

full-length, recombinant TpGcpE protein (TpMuguga_02g00667) (natural protein)
Kd: 18.7 nM
